Measurements from the supplement of paper PMC9732359.
± gives the uncertainty stated by the source.

Experiment: protein stability index of a GFP-peptide fusion (yeast GPS) (PSI 1-4); higher = more stable; sorted into four equal gates, so the index is relative within each strain
In short: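 For each peptide, the protein stability index sums the read frequency in every gate after multiplying it by the gate number. Read frequencies came from plasmids that were PCR-amplified from each gate and Illumina-sequenced, with reads assigned to strains by barcodes. The gates were four equal bins of GFP/Cherry fluorescence ratio applied to mid-log yeast in leucine-free medium carrying a pooled library of tiled 17-residue yeast protein peptides fused downstream of GFP on a Cherry-expressing plasmid.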

Sequence | protein stability index (doa10∆) | protein stability index (pdr5∆) | protein stability index (san1∆) | protein stability index (ubr1∆)
EVFIGRVKDQDGRVNRF [YJR042W/NUP85] | 3.44 ± 0.2 | 3.28 ± 0.28 | 3.5 ± 0.14 | 3.19 ± 0.17
QDVDDAHAIDQMTWRQW [POP8] | 2.1 ± 0.058 | 1.99 ± 0.052 | 1.78 ± 0.069 | 2.5 ± 0.076
ALELDDTVVSRVNEMVQ [ECM29] | 3.16 ± 0.17 | – | – | 3.16 ± 0.1
SLAQNDCNSALDQLLVL [RPN5] | 2.15 ± 0.048 | 2.35 ± 0.053 | 2.15 ± 0.053 | 2.37 ± 0.05
KYSKLVDNVTLESYKTQ [SRP72] | 3.54 ± 0.15 | 3.22 ± 0.16 | 3.42 ± 0.1 | 3.22 ± 0.11
NDFFDNGDNLYGNDEEV [RPN4] | 1.21 ± 0.2 | 1.62 ± 0.29 | – | 1.05 ± 0.067
ILDNINHNGSALLIEVF [ITC1] | 1.13 ± 0.096 | 1.22 ± 0.076 | 1.14 ± 0.13 | 1.22 ± 0.07
LNDRKVLFAAYKVEHPF [RPB11] | 1.72 ± 0.055 | 2.23 ± 0.058 | 2.03 ± 0.084 | 2.27 ± 0.051
THTNLERDEQKRAEKKA [SNF2] | 3.35 ± 0.099 | 3.45 ± 0.11 | 2.77 ± 0.12 | 3.23 ± 0.059
GKHLSYQRSKRVNNPNV [RPL33A] | 2.32 ± 0.047 | 1.92 ± 0.038 | 2.01 ± 0.069 | 2.78 ± 0.041
MQLEEELMKLDGTEYVL [MED6] | 3.26 ± 0.15 | 3.4 ± 0.11 | 3.21 ± 0.091 | 3.26 ± 0.076
LVGRLRKCETQKQWDDI [YCS4] | 2.21 ± 0.069 | 1.74 ± 0.057 | 1.53 ± 0.15 | 1.48 ± 0.072
QAPKQRRRTYRAHGRIN [RPL17A] | 2.06 ± 0.29 | 2.64 ± 0.12 | 1.9 ± 0.18 | 2.09 ± 0.091
ASISLPNHIPSVNPSNK [SWP82] | 2.99 ± 0.1 | 3.05 ± 0.069 | 3.01 ± 0.075 | 3.12 ± 0.054
MSNVVQARDNSQVFGVA [RPS14A] | 1.89 ± 0.06 | 2.11 ± 0.056 | 1.94 ± 0.083 | 2.05 ± 0.041
TVDLALFGSPPFILEYD [YMR129W/POM152] | 2.36 ± 0.044 | 2.49 ± 0.047 | 1.9 ± 0.087 | 2.7 ± 0.032
VARIYASFNDTFVHVTD [RPS14A] | 1.96 ± 0.06 | 1.73 ± 0.04 | 2.12 ± 0.07 | 2.2 ± 0.055
VAIACDLRLGSQSLGVS [PUP3] | – | 2.75 ± 0.26 | 2.85 ± 0.17 | –
LRSRSFKSTESNISDEK [YMR129W/POM152] | – | – | 2.88 ± 0.27 | –
KALKTNINFASGVKNDI [CDC53] | 3.09 ± 0.089 | 3.22 ± 0.068 | 2.83 ± 0.095 | 3.04 ± 0.074
PRVQGFYVPQARNVTFD [GRR1] | 2.99 ± 0.064 | 2.68 ± 0.056 | 2.91 ± 0.038 | 3.02 ± 0.045
DCNSALDQLLVLEKKTR [RPN5] | 2.31 ± 0.068 | 2.31 ± 0.1 | 2.22 ± 0.058 | 2.44 ± 0.083
PAFTFGAQKDNEKKTEE [YJL041W/NSP1] | 3.35 ± 0.2 | 2.64 ± 0.28 | 3.11 ± 0.26 | 3.46 ± 0.2
NATEVQKESDAKNETNS [ITC1] | 2.67 ± 0.077 | 3.05 ± 0.11 | 2.67 ± 0.11 | 2.59 ± 0.2
LLVQSLNDMVLELKENY [NNF1] | 2.75 ± 0.14 | 1.52 ± 0.1 | – | –
KKYSSKNKYGEINSEDY [SRP68] | 3.22 ± 0.12 | 2.8 ± 0.18 | 3.34 ± 0.066 | 3.14 ± 0.053
DADKLSFNCENFFQAPQ [YML031W/NDC1] | 2.37 ± 0.08 | 2.15 ± 0.058 | 2.36 ± 0.06 | 2.3 ± 0.058
VSDHLDAIYRELTKNPN [SMC1] | 2.87 ± 0.23 | – | – | –
